According to patent US20200308257A1 (VISTERRA, published 2020):
“And” between values parts separate entries of the source, which are not always exact repeats. Equal entries are not always repeated.

Legend:
Test in all cases: cell-based or functional assay
[1] = biological target: hemagglutinin (HA) of influenza A/California/7/2009 (H1N1) (influenza A virus (H1N1))
[2] = biological target: hemagglutinin (HA) of influenza A/Singapore/2401001/2018 (H3N2) (influenza A virus (H3N2))
[3] = biological target: hemagglutinin (HA) of influenza A/Switzerland/8060/2017 (H3N2) (influenza A virus (H3N2))
[4] = biological target: hemagglutinin (HA) of influenza A/Bulgaria/10101/2017 (H3N2) (influenza A virus (H3N2))
[5] = biological target: T1, hemagglutinin (HA) of influenza A/Hong Kong/4801/2014 (H3N2) (influenza A virus (H3N2))
[6] = biological target: hemagglutinin (HA) of influenza A/Georgia/0720004/2018 (H3N2) (influenza A virus (H3N2))
[7] = biological target: hemagglutinin (HA) of influenza A/Latvia/0304001/2018 (H1N1) (influenza A virus (H1N1))
[8] = biological target: hemagglutinin (HA) of influenza A/Florida/70327/2017 (H3N2) (influenza A virus (H3N2))
[9] = biological target: hemagglutinin (HA) of influenza A/Spain/2604004/2018 (H3N2) (influenza A virus (H3N2))
[10] = biological target: hemagglutinin (HA) of influenza A/Latvia/30101/2017 (H3N2) (influenza A virus (H3N2))
[11] = biological target: hemagglutinin (HA) of influenza A/Florida/71210/2017 (H3N2) (influenza A virus (H3N2))
[12] = biological target: hemagglutinin (HA) of influenza A/France/1302001/2018 (H1N1) (influenza A virus (H1N1))
[13] = biological target: hemagglutinin (HA) of influenza A/North Carolina/71330/2017 (H3N2) (influenza A virus (H3N2))
[14] = biological target: hemagglutinin (HA) of influenza A/Malay sia/1701001/2018 (H1N1) (influenza A virus (H1N1))
[15] = biological target: hemagglutinin (HA) of influenza A/Belarus/1003001/2018 (H3N2) (influenza A virus (H3N2))
[16] = biological target: T2, hemagglutinin (HA) of influenza A/Michigan/45/2015 (H1N1)pdm09 (influenza A virus (H1N1))
[17] = biological target: hemagglutinin (HA) of influenza A/Georgia/0720001/2018 (H1N1) (influenza A virus (H1N1))
[18] = biological target: hemagglutinin (HA) of influenza A/Thailand/2702006/2018 (H3N2) (influenza A virus (H3N2))
[19] = biological target: hemagglutinin (HA) of influenza A/Florida/70702/2017 (H1N1) (influenza A virus (H1N1))
[20] = biological target: hemagglutinin (HA) of influenza A/Georgia/0720003/2018 (H3N2) (influenza A virus (H3N2))
[21] = biological target: hemagglutinin (HA) of influenza A/Florida/70609/2017 (H3N2) (influenza A virus (H3N2))
[22] = biological target: hemagglutinin (HA) of influenza A/Thailand/2702008/2018 (H1N1) (influenza A virus (H1N1))
[23] = biological target: hemagglutinin (HA) of influenza A/Florida/71268/2017 (H3N2) (influenza A virus (H3N2))
[24] = biological target: hemagglutinin (HA) of influenza A/Kansas/14/2017 (H3N2) (influenza A virus (H3N2))
[25] = biological target: hemagglutinin (HA) of influenza A/Brisbane/02/2018 (H1N1) (influenza A virus (H1N1))
[26] = biological target: hemagglutinin (HA) of influenza A/Spain/2602001/2018 (H1N1) (influenza A virus (H1N1))
[27] = biological target: hemagglutinin (HA) of influenza A/Pennsylvania/0725006/2018 (H3N2) (influenza A virus (H3N2))
[28] = biological target: hemagglutinin (HA) of influenza A/Serbia/0502016/2018 (H1N1) (influenza A virus (H1N1))
[29] = biological target: hemagglutinin (HA) of influenza A/Singapore/INFIMH-16 0019/2016 (H3N2) (influenza A virus (H3N2))
[30] = biological target: hemagglutinin (HA) of influenza A/Sydney/0903001/2018 (H3N2) (influenza A virus (H3N2))
[31] = biological target: hemagglutinin (HA) of influenza A/Latvia/0303004/2018 (H3N2) (influenza A virus (H3N2))
[32] = biological target: hemagglutinin (HA) of influenza A/Pennsylvania/0725005/2018 (H3N2) (influenza A virus (H3N2))
[33] = biological target: hemagglutinin (HA) of influenza A/Serbia/0502013/2018 (H1N1) (influenza A virus (H1N1))
[34] = biological target: hemagglutinin (HA) of influenza A/Latvia/0303005/2018 (H1N1) (influenza A virus (H1N1))
[35] = biological target: hemagglutinin (HA) of influenza A/Spain/2609001/2018 (H1N1) (influenza A virus (H1N1))
[36] = biological target: hemagglutinin (HA) of influenza A/Florida/70303/2017 (H3N2) (influenza A virus (H3N2))
[37] = biological target: hemagglutinin (HA) of influenza A/Ohio/0717002/2018 (H3N2) (influenza A virus (H3N2))
[38] = biological target: hemagglutinin (HA) of influenza A/Bulgaria/0106011/2018 (H3N2) (influenza A virus (H3N2))
[39] = biological target: hemagglutinin (HA) of influenza A/Latvia/30314/2017 (H3N2) (influenza A virus (H3N2))
[40] = biological target: hemagglutinin (HA) of influenza A/France/1307001/2018 (H1N1) (influenza A virus (H1N1))
[41] = biological target: hemagglutinin (HA) of influenza A/Florida/70604/2017 (H3N2) (influenza A virus (H3N2))
[42] = biological target: hemagglutinin (HA) of influenza A/France/1306001/2018 (H1N1) (influenza A virus (H1N1))
[43] = biological target: T2, hemagglutinin (HA) of influenza …; remark: listed apart in the source
[44] = biological target: T1, hemagglutinin (HA) of influenza A/Hong …; remark: listed apart in the source
[45] = biological target: hemagglutinin (HA) of influenza A/California/04/2009 (H1N1) (influenza A virus (H1N1))

B1: VIS410 (antibody, V domains shown)
VH: QVQLLETGGGLVKPGQSLKLSCAASGFTFTSYAMHWVRQPPGKGLEWVAVVSYDGNYKYYADSVQGRFTISRDNSKNTLYLQMNSLRAEDTAVYYCAKDSRLRSLLYFEWLSQGYFNPWGQGTTLTVSS
VL: DIQMTQSPSSLSASVGDRVTITCRSSQSITFDYKNYLAWYQQKPGKAPKLLIYWGSYLESGVPSRFSGSGSGTDFTLTISSLQPEDFATYYCQQHYRTPPSFGQGTKVEIK
For B1, the “IC50, phenotypic IC50 assay (virus infection of MDCK cells)” value (“IC50, phenotypic IC50 assay” below) [1] was 0.52 µg/mL, the “IC50, phenotypic IC50 assay” value [2] was 1.17 µg/mL and the “IC50, phenotypic IC50 assay” value [3] was 1.07 µg/mL. The “IC50, phenotypic IC50 assay” value [4] was 0.22 µg/mL, the “IC50, phenotypic IC50 assay” value [5] was 1.65 µg/mL and the “IC50, phenotypic IC50 assay” value [6] was 0.97 µg/mL. The “IC50, phenotypic IC50 assay” value [7] was 0.57 µg/mL, the “IC50, phenotypic IC50 assay” value [8] was 0.67 µg/mL and the “IC50, phenotypic IC50 assay” value [9] was 0.92 µg/mL. The “IC50, phenotypic IC50 assay” value [10] was 0.28 µg/mL, the “IC50, phenotypic IC50 assay” value [11] was 0.97 µg/mL and the “IC50, phenotypic IC50 assay” value [12] was 0.86 µg/mL. For the same binder, the “IC50, phenotypic IC50 assay” value [13] was 0.92 µg/mL, the “IC50, phenotypic IC50 assay” value [14] was 0.4 µg/mL and the “IC50, phenotypic IC50 assay” value [15] was 1.26 µg/mL. The “IC50, phenotypic IC50 assay” value [16] was 0.89 µg/mL, the “IC50, phenotypic IC50 assay” value [17] was 0.71 µg/mL and the “IC50, phenotypic IC50 assay” value [18] was 1.13 µg/mL. The “IC50, phenotypic IC50 assay” value [19] was 0.41 µg/mL, the “IC50, phenotypic IC50 assay” value [20] was 0.49 µg/mL and the “IC50, phenotypic IC50 assay” value [21] was 2.41 µg/mL. The “IC50, phenotypic IC50 assay” value [22] was 0.55 µg/mL, the “IC50, phenotypic IC50 assay” value [23] was 3.14 µg/mL and the “IC50, phenotypic IC50 assay” value [24] was 2.65 µg/mL. For the same binder, the “IC50, phenotypic IC50 assay” value [25] was 0.55 µg/mL, the “IC50, phenotypic IC50 assay” value [26] was 0.42 µg/mL and the “IC50, phenotypic IC50 assay” value [27] was 1.5 µg/mL. For the same binder, the “IC50, phenotypic IC50 assay” value [28] was 0.37 µg/mL, the “IC50, phenotypic IC50 assay” value [29] was 1.35 µg/mL and the “IC50, phenotypic IC50 assay” value [30] was 1.49 µg/mL. The “IC50, phenotypic IC50 assay” value [31] was 4.47 µg/mL, the “IC50, phenotypic IC50 assay” value [32] was 2.2 µg/mL and the “IC50, phenotypic IC50 assay” value [33] was 0.67 µg/mL. The “IC50, phenotypic IC50 assay” value [34] was 0.87 µg/mL, the “IC50, phenotypic IC50 assay” value [35] was 0.43 µg/mL and the “IC50, phenotypic IC50 assay” value [36] was 0.34 µg/mL. For the same binder, the “IC50, phenotypic IC50 assay” value [37] was 0.81 µg/mL, the “IC50, phenotypic IC50 assay” value [38] was 1.67 µg/mL and the “IC50, phenotypic IC50 assay” value [39] was 1 µg/mL. The “IC50, phenotypic IC50 assay” value [40] was 0.86 µg/mL, the “IC50, phenotypic IC50 assay” value [41] was 1.23 µg/mL and the “IC50, phenotypic IC50 assay” value [42] was 0.91 µg/mL. The “EC50 (µM) - Replicate 1, CPE assay” value [43] was 0.013 µM, the “EC50 (µM) - Replicate 2, CPE assay” value [43] was 0.011 µM and the “EC50, NP ELISA infection assay, both assay formats” value [44] was 0.01 µM and 0.02 µM. The “EC50, virus infection of MDCK-London cells (NP ELISA microneutralization)” value [44] was ~0.01 µM and ~1.5 µg/ml and the “EC50, virus infection of MDCK-London cells (NP ELISA microneutralization)” value [45] was ~0.006 µM and ~0.9 µg/ml.
